Columns and labels:
Experiment in all cases: cell-based or functional assay
[1] = target: human CRF2-4 (IL10Rb) (human)
[2] = target: T1, human zcytor19 (Zyctor19) cytokine receptor (human)
T1 sequence (Q8IU57 1-520, looked up): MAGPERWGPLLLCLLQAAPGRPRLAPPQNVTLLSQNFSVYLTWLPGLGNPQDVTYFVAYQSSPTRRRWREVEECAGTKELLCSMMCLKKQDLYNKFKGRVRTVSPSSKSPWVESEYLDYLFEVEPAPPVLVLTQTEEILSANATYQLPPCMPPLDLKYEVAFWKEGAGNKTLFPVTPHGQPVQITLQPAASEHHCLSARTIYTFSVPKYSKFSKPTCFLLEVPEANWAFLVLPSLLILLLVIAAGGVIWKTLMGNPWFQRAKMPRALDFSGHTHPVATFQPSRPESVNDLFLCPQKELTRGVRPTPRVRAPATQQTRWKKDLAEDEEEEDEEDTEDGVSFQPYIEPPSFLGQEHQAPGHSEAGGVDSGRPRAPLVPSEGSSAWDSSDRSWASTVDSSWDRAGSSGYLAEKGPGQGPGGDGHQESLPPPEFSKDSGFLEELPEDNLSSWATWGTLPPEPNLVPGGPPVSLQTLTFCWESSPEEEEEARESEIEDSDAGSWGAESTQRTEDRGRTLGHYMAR

[3] = target: zcytoR19 and IL10Rb (CRF2-4) co-expressed on cells (heterodimeric receptor) (human)

Chain of human CRF2-4 (IL10Rb) (human) (Q08334 whole entry): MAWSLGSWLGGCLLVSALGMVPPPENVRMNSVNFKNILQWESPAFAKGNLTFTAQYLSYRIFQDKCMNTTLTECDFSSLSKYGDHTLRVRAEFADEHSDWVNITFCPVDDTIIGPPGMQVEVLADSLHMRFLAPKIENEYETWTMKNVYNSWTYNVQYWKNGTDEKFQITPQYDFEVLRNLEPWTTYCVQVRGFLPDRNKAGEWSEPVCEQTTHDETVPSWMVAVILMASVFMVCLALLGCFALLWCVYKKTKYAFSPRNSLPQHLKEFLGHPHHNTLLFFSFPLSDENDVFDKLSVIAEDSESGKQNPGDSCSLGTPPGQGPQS

B1: zcyto22 (ligand)
chain: MTGDCMPVLVLMAAVLTVTGAVPVARLRGALPDARGCHIAQFKSLSPQELQAFKRAKDALEESLLLKDCKCRSRLFPRTWDLRQLQVRERPVALEAELALTLKVLEATADTDPALGDVLDQPLHTLHHILSQLRACVSRQGPGTQIQPQPTAGPRTRGRLHHWLHRLQEAPKKESPGCLEASVTFNLFRLLTRDLNCVASGDLCV
- ISRE-luciferase fold induction, wild-type 293 cells, Zcyto22 0.01 ng/ml (fold induction) [1]: 0.9
- ISRE-luciferase fold induction, wild-type 293 cells, Zcyto22 0.01 ng/ml + IL10Rb neutralizing Antibody (fold induction) [1]: 0.9
- ISRE-luciferase fold induction, wild-type 293 cells, Zcyto22 0.1 ng/ml (fold induction) [1]: 1.2
- ISRE-luciferase fold induction, wild-type 293 cells, Zcyto22 0.1 ng/ml + IL10Rb neutralizing Antibody (fold induction) [1]: 0.8
- ISRE-luciferase fold induction, wild-type 293 cells, Zcyto22 1 ng/ml (fold induction) [1]: 1.8
- ISRE-luciferase fold induction, wild-type 293 cells, Zcyto22 1 ng/ml + IL10Rb neutralizing Antibody (fold induction) [1]: 0.8
- ISRE-luciferase fold induction, wild-type 293 cells, Zcyto22 10 ng/ml (fold induction) [1]: 8
- ISRE-luciferase fold induction, wild-type 293 cells, Zcyto22 10 ng/ml + IL10Rb neutralizing Antibody (fold induction) [1]: 1
- ISRE-luciferase fold induction, wild-type 293 cells, Zcyto22 100 ng/ml (fold induction) [1]: 11
- ISRE-luciferase fold induction, wild-type 293 cells, Zcyto22 100 ng/ml + IL10Rb neutralizing Antibody (fold induction) [1]: 1.2
- ISRE-luciferase fold induction, 293 cells transfected with ISRE-Luc./Zcytor19, Zcyto22 125 ng/ml (fold induction) [2]: 104
- ISRE-luciferase fold induction, BHK cells transfected with zcytoR19 alone, zcyto22 0.001 ng/ml (fold induction) [2]: 1.2
- ISRE-luciferase fold induction, BHK cells transfected with zcytoR19 alone, zcyto22 0.01 ng/ml (fold induction) [2]: 1.2
- ISRE-luciferase fold induction, BHK cells transfected with zcytoR19 alone, zcyto22 0.1 ng/ml (fold induction) [2]: 1.1
- ISRE-luciferase fold induction, BHK cells transfected with zcytoR19 alone, zcyto22 1 ng/ml (fold induction) [2]: 1.5
- ISRE-luciferase fold induction, BHK cells transfected with zcytoR19 alone, zcyto22 10 ng/ml (fold induction) [2]: 1.9
- ISRE-luciferase fold induction, BHK cells transfected with zcytoR19 alone, zcyto22 100 ng/ml (fold induction) [2]: 2
- ISRE-luciferase fold induction, BHK cells transfected with zcytoR19 alone, zcyto22 1000 ng/ml (fold induction) [2]: 1.8
- ISRE-luciferase fold induction, BHK cells transfected with zcytoR19 and IL10Rb (CRF2-4), zcyto22 0.001 ng/ml (fold induction) [3]: 1.3
- ISRE-luciferase fold induction, BHK cells transfected with zcytoR19 and IL10Rb (CRF2-4), zcyto22 0.01 ng/ml (fold induction) [3]: 1.7
- ISRE-luciferase fold induction, BHK cells transfected with zcytoR19 and IL10Rb (CRF2-4), zcyto22 0.1 ng/ml (fold induction) [3]: 2.4
- ISRE-luciferase fold induction, BHK cells transfected with zcytoR19 and IL10Rb (CRF2-4), zcyto22 1 ng/ml (fold induction) [3]: 2.7
- ISRE-luciferase fold induction, BHK cells transfected with zcytoR19 and IL10Rb (CRF2-4), zcyto22 10 ng/ml (fold induction) [3]: 2.7
- ISRE-luciferase fold induction, BHK cells transfected with zcytoR19 and IL10Rb (CRF2-4), zcyto22 100 ng/ml (fold induction) [3]: 2.2
- ISRE-luciferase fold induction, BHK cells transfected with zcytoR19 and IL10Rb (CRF2-4), zcyto22 1000 ng/ml (fold induction) [3]: 2.2

Source: patent publication US20040029228A1
